Measured values taken from PMC8124061.
“And” between values parts separate entries of the source, which are not always exact repeats. Equal entries are not always repeated.

Key:
[1] = molecular target: F1FO ATP synthase (complex V) of Euglena gracilis mitochondria (Euglena gracilis (endogenous in mitochondria)); assay: native gel or EMSA; two-dimensional BN/BN-PAGE of digitonin-solubilised mitochondria; second BN-PAGE with 0.02% DDM in the cathode buffer, which dissociates the supercomplexes; NADH-dehydrogenase activity stain
[2] = molecular target: F1FO ATP synthase (complex V) of Euglena gracilis mitochondria (Euglena gracilis (endogenous in mitochondria)); assay: native gel or EMSA; purified dimeric ATP synthase incubated with DDM at room temperature for 10 min; species assigned by size; kind of gel not told in the legend
[3] = molecular target: F1FO ATP synthase (complex V) of Euglena gracilis mitochondria (Euglena gracilis (endogenous in mitochondria)); assay: native gel or EMSA; BN-PAGE, 3-10% acrylamide gradient, of mitochondria solubilised with DDM 4.0 g/g protein (3.2% w/v), 4 °C, pH 8.4, 100 mM NaCl; Coomassie and in-gel NADH-dehydrogenase and ATPase activity
[4] = molecular target: F1FO ATP synthase (complex V) of Euglena gracilis mitochondria (Euglena gracilis (endogenous in mitochondria)); assay: native gel or EMSA; BN-PAGE, 3-10% acrylamide gradient with 0.05% digitonin, of mitochondria solubilised with digitonin 8.0 g/g protein (6.4% w/v; up to 12 g/g), 4 °C; Coomassie and in-gel NADH-dehydrogenase and ATPase activity
[5] = molecular target: F1FO ATP synthase (complex V) of Euglena gracilis mitochondria (Euglena gracilis (endogenous in mitochondria)); assay: native gel or EMSA; BN-PAGE, 3-10% acrylamide gradient, of mitochondria solubilised with DDM 4.0 g/g protein (3.2% w/v), 4 °C, pH 8.4, 100 mM NaCl; Coomassie and in-gel NADH-dehydrogenase and ATPase activity; remark: listed apart in the source
[6] = molecular target: dimeric ubiquinol:cytochrome c oxidoreductase (complex III, III2) of Euglena gracilis mitochondria (Euglena gracilis (endogenous in mitochondria)); assay: native gel or EMSA; two-dimensional BN/SDS Tricine-PAGE (12%) of digitonin-extracted complexes; subunits told by their electrophoretic profile

F1FO ATP synthase (complex V) of Euglena gracilis mitochondria
stoichiometry N [1]: 4 | stoichiometry N [2]: 2 | stoichiometry N [3]: 4 | stoichiometry N [4]: 2 and 4 | stoichiometry N [5]: 2

cytochrome c oxidase (complex IV) of Euglena gracilis mitochondria
stoichiometry N [6]: 1 and 2
